From PMC8632968

Target: S. cerevisiae full-length Ty3 integrase (assembled on Ty3 LTR DNA as the Ty3 intasome) (S. cerevisiae)
Assay: cryo-EM structure; minimal integration machinery: Ty3 intasome with TFIIIB on unlabelled 55-bp tD(GUC)K DNA, without TFIIIC; gel filtration in 40 mM Tris pH 7, 80 mM NaCl, 7 mM MgCl2, 1 mM DTT; un-crosslinked; strand-transfer complex, 4.0 Å

stoichiometry N: 4
Substance: S. cerevisiae full-length Ty3 integrase (assembled on Ty3 LTR DNA as the Ty3 intasome) (enzyme)
